Values quoted from earlier work, collected in PMC8400902.
Like-named read-outs stand apart in the source and are kept apart here. Values belong to the substance of their own block, whether it stands above or below them.

Tests used:
[1] = molecular target: Amyloid beta (Homo sapiens) (UniProt P05067)
[2] = molecular target: Amyloid beta fibril (Homo sapiens) (UniProt P05067)
[3] = molecular target: Amyloid beta (Homo sapiens) (UniProt P05067); remark: listed apart in the source

Agrin, sequence (O00468 1864-2068): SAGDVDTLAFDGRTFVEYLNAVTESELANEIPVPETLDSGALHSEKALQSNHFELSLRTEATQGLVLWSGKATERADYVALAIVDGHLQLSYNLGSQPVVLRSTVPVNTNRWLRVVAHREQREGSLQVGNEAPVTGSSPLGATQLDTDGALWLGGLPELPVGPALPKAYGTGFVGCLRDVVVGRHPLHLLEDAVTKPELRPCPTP
Haptoglobin, sequence (P00738 19-160): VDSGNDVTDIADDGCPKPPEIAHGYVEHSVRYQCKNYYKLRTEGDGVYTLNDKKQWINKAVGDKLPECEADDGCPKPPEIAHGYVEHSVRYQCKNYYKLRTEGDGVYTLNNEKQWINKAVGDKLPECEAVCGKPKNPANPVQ
Serum amyloid P component, sequence (P02743 20-222): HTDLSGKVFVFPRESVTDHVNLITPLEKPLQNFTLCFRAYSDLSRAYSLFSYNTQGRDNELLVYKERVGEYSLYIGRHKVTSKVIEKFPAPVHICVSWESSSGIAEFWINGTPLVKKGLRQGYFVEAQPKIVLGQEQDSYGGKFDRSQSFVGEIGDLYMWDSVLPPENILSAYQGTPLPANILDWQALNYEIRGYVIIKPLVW

Kd [1]: 300 nM
Substance: Haptoglobin (from UniProt P00738)

Kd [2]: 3.5 nM
Substance: Agrin (from UniProt O00468)

Kd [3]: 6 nM
Substance: Serum amyloid P component (from UniProt P02743)
